From patent US9555076B2, “Neuregulin based methods and compositions for treating cardiovascular diseases” (Zensun (Shanghai) Science & Technology, Co., Ltd., priority 2002, dated 2017)
“And” between values parts separate entries of the source, which are not always exact repeats. Equal values may be shown once.

Tests used:
[1] = test system: acute myocardial injury caused by viral (Coxsackie B3) infection in mice; test: Echocardiography heart function, mice infected with Coxsackie B3 virus; format: in vivo, BALB/C mice
Protocol: Drug administration of both the testing drug group and the model group was intravenous injection into the tail vein of mice, once every day (qd), for consecutive 5 days, volume of each of the drug administered was 0.2 ml/animal.
0.2 ml of 100×TCID50 CVB3 provided by Zhong Shan Hospital affiliated to Fudan University was injected intra-abdominally and established myocarditis model. Within the following week, the mouse manifested pilo-erection, depilation, emaciation, dullness and death, about half of the tested animals died at the 8th day.
Intravenous injection of the testing drug into the tail vein was carried out the same day of intra-abdominal viral infection in mice, the injection was performed for consecutive 5 days, animal survival rate was monitored, after completion of the experiment, echocardiograph, myocardial pathologic examination, serum troponin determination were carried out.
Chest depilating was performed at the 7th day of viral injection, then the mouse was fixed on special made fixed mount and echocardiograph was carried out with S12 high-frequency probe, the main index included: • EF: ejection fraction of left ventricle, being major index reflecting ejection function of left ventricle; • FS: shortening fraction of left ventricle, index reflecting contraction function of left ventricle; • LVDd: diastolic maximal inner diameter (cm); • LVDs: systolic minimal inner diameter (cm). 7.3.3.2 Determination of Serum Troponin I (cTnI) in Mice
• Normal mice control group, model group and testing drug group were set up; • Normal mice control group (n=10); • Model group (n=20): Prepared buffer solution was injected; • Testing drug group (n=20): 30 μg/kg of rhNRG-1 β was administered for 3, 5 and 7 consecutive days as three difference therapeutic courses with 20 animals assigned for each group; • Placebo control group (n=20): Intra-abdominal injection of non-CVB3 freeze-thaw cellular supernatant, 0.2 ml/animal. 10.2 Dosage Set Up, Preparation of Testing Drug, Route of Drug Administration, Times of Drug Administration, Concentration and Volume of the Testing Drug • rhNRG-1β was diluted with preparation buffer solution (10 mM PB, 0.2% human serum albumin, 5% mannitol to needed concentration; • Three drug administration groups were set up, intravenous injection for consecutive 3-day, 5-day and 7-day, drug volume for each dose was 0.2 ml/animal; • Drug administration of the model group was intravenous injection into the tail vein of mice, once every day (qd), for consecutive 7 days, drug volume for each dose was 0.2 ml/animal. 7.3 Method of the Experiment 7.3.1 Set Up of Acute Viral Myocariditis Animal Model in Mice

[2] = test system: heart failure in rat caused by ligation of coronary artery; test: Plasma renin-angiotensin-aldosterone radioimmunoassay; format: in vivo, SD rat
Protocol: Carotid artery phlebotomy was carried out and plasma extracted according to the mandate of the reagent kit, frozen and stored at −20° C. Renin activity (PRA), angiotensin I (AI), angiotensin II (AII) and aldosterone (ALD) content were determined with immunoassay.

[3] = 7.5 μg/kg iv qd × 5, 7th day, (I)
[4] = 7.5 μg/kg iv qd × 5, 7th day, (II)
[5] = 15 μg/kg iv qd × 5, 7th day, (I)
[6] = 15 μg/kg iv qd × 5, 7th day, (I), listed as rhNRG-1β
[7] = 15 μg/kg iv qd × 5, 7th day, (II)
[8] = 30 μg/kg iv qd × 3, 7th day, (I)
[9] = 30 μg/kg iv qd × 3, 7th day, (I), listed as rhNRG-1β
[10] = 30 μg/kg iv qd × 3, 7th day, (II)
[11] = 30 μg/kg iv qd × 5, 7th day, (I)
[12] = 30 μg/kg iv qd × 5, 7th day, (I), listed as hNRG-1β
[13] = 30 μg/kg iv qd × 5, 7th day, (II)
[14] = 30 μg/kg iv qd × 5, 7th day, Example 5 (I)
[15] = 30 μg/kg iv qd × 5, 7th day, Example 5 (I), listed as rhNRG-1β
[16] = 30 μg/kg iv qd × 5, 7th day, Example 5 (II)
[17] = 30 μg/kg iv qd × 7, 7th day, (I)
[18] = 30 μg/kg iv qd × 7, 7th day, (I), listed as rhNRG-1β
[19] = 30 μg/kg iv qd × 7, 7th day, (II)
[20] = dose not given (n = 6), iv qd × 10

B1: rhNRG-1 β: Recombinant human neuregulin fragment of 61 amino acid (SEQ ID NO:4), 3 disulfide bonds, expressed in E. coli (protein, listed as Homo sapiens)
chain: SHLVKCAEKEKTFCVNGGECFMVKDLSNPSRYLCKCPNEFTGDRCQNYVMASFYKAEELYQ
modifications: disulfide (positions not given here)
For B1, the EF [1, 3] was 78.1 ± 9.3%, the FS [1, 3] was 41.7 ± 9.6% and the LVDd [1, 3] was 0.191 ± 0.012 cm. The LVDs [1, 3] was 0.114 ± 0.028 cm, the EF [1, 4] was 71.9 ± 6.69% and the FS [1, 4] was 35.7 ± 5.60%. The LVDd [1, 4] was 0.213 ± 0.009 cm, the LVDs [1, 4] was 0.133 ± 0.015 cm and the EF [1, 5] was 86.0±2.9%. The FS [1, 5] was 50.7±4.3%, the LVDd [1, 5] was 0.189±0.008 cm and the LVDs [1, 5] was 0.099±0.027 cm. For the same molecule, the EF [1, 6] was 81.3 ± 6.28 %, the FS [1, 6] was 44.5 ± 8.27 % and the LVDd [1, 6] was 0.189 ± 0.008 cm. It also gave an LVDs [1, 6] of 0.099 ± 0.027 cm, an EF [1, 7] of 81.6 ± 4.59 % and an FS [1, 7] of 44.9 ± 5.68 %. It also gave an LVDd [1, 7] of 0.201 ± 0.011 cm, an LVDs [1, 7] of 0.114 ± 0.018 cm and an EF [1, 8] of 73.1±6.6%. The FS [1, 8] was 36.7 ± 4.7%, the LVDd [1, 8] was 0.194 ± 0.008 cm and the LVDs [1, 8] was 0.123±0.012 cm. It also gave an EF [1, 9] of 73.1 ± 6.6%, an LVDs [1, 9] of 0.123 ± 0.012 cm and an EF [1, 10] of 81.0 ± 5.4%. It also gave an FS [1, 10] of 43.9 ± 5.1%, an LVDd [1, 10] of 0.211 ± 0.016 cm and an LVDs [1, 10] of 0.121 ± 0.016 cm. For the same molecule, the EF [1, 11] was 90.2±2.5%, the FS [1, 11] was 55.7±2.1% and the LVDd [1, 11] was 0.187±0.006 cm. For the same molecule, the LVDs [1, 11] was 0.085±0.009 cm, the EF [1, 12] was 90.2 ± 2.5 % and the FS [1, 12] was 55.7 ± 2.1 %. The LVDd [1, 12] was 0.187 ± 0.006 cm, the LVDs [1, 12] was 0.085 ± 0.009 cm and the EF [1, 13] was 87.7 ± 3.76 %. It also gave an FS [1, 13] of 51.8 ± 5.24 %, an LVDd [1, 13] of 0.196 ± 0.011 cm and an LVDs [1, 13] of 0.094 ± 0.011 cm. For the same molecule, the EF [1, 14] was 86.8±4.4%, the FS [1, 14] was 51.9±5.8% and the LVDd [1, 14] was 0.187 ± 0.006 cm. It also gave an LVDs [1, 14] of 0.090±0.011 cm, an EF [1, 15] of 86.8 ± 4.4% and an FS [1, 15] of 51.9 ± 5.8%. For the same molecule, the LVDs [1, 15] was 0.090 ± 0.011 cm, the EF [1, 16] was 85.8 ± 4.205% and the FS [1, 16] was 50.0 ± 6.350%. It also gave an LVDd [1, 16] of 0.199 ± 0.000 cm, an LVDs [1, 16] of 0.100 ± 0.014 cm and an EF [1, 17] of 87.0±3.3%. For the same molecule, the FS [1, 17] was 51.8±5.1%, the LVDd [1, 17] was 0.192 ± 0.008 cm and the LVDs [1, 17] was 0.092±0.012 cm. For the same molecule, the EF [1, 18] was 87.0 ± 3.3%, the FS [1, 18] was 51.8 ± 5.1% and the LVDs [1, 18] was 0.092 ± 0.012 cm. It also gave an EF [1, 19] of 87.283 ± 1.694%, an FS [1, 19] of 52.367 ± 1.847% and an LVDd [1, 19] of 0.194 ± 0.017 cm. It also gave an LVDs [1, 19] of 0.092 ± 0.008 cm, an AI ([2]; 5 μg/kg iv qd × 10) of 10.036 ng/mL and an AII ([2]; 5 μg/kg iv qd × 10) of 807.304 pg/mL. For the same molecule, the ALD ([2]; 5 μg/kg iv qd × 10) was 1.472 ng/mL, the PRA ([2]; 5 μg/kg iv qd × 10) was 4.032 ng/ml · h and the AI ([2]; 10 μg/kg iv qd × 10) was 7.65 ± 1.40 ng/mL and 7.654 ng/mL. For the same molecule, the AII ([2]; 10 μg/kg iv qd × 10) was 468.58 ± 165.10 pg/mL and 468.583 pg/mL, the ALD ([2]; 10 μg/kg iv qd × 10) was 1.26 ± 0.38 ng/mL and 1.264 ng/mL and the PRA ([2]; 10 μg/kg iv qd × 10) was 1.075±1.50 ng/ml · h and 1.075 ng/ml · h. For the same molecule, the AI ([2]; 20 μg/kg iv qd × 10) was 7.40 ± 12.15 ng/mL and 7.400 ng/mL, the AII ([2]; 20 μg/kg iv qd × 10) was 641.47 ± 283.86 pg/mL and 641.47 pg/mL and the ALD ([2]; 20 μg/kg iv qd × 10) was 1.02 ± 0.27 ng/mL and 1.018 ng/mL. The PRA ([2]; 20 μg/kg iv qd × 10) was 1.337±1.09 ng/ml · h and 1.337 ng/ml · h, the AI [2, 20] was 10.655 ng/mL and the AII [2, 20] was 1366.38 pg/mL. It also gave an ALD [2, 20] of 1.738 ng/mL and a PRA [2, 20] of 3.506 ng/ml · h.
